Earlier results on three substances are cited in PMC3050111.

Where two headings read alike, the source gives them in different places.

The term Kd denotes a measure of binding affinity in units of concentration.

Series [1] concerns the target integrin αVβ3 (Homo sapiens) (UniProt P06756).
The target is the same in series [2]. The source holds these as a separate data set.
Series [3] shares this target. The source holds these as a separate data set.

Turning to Tat (from UniProt P04326), the Kd in series [1] was 32 nM.
Consider fibrinogen (from UniProt P02671), for which the Kd in series [2] is 27 nM.
With vitronectin (from UniProt P04004), the Kd in series [3] was 64 nM.
